Measured values: patent US20240261333A1 (published 2024)

Tests used:
[1] = biological target: T1, FLAG tagged B3GNT2 (N- or C-terminal FLAG tag) (human, UniProt Q9NY97 1-397); experiment: co-IP of FLAG tagged B3GNT2 from A375 lysate, Western blot
T1 construct: The text speaks of the co-IP of B3GNT2 without separating the N-FLAG and C-FLAG constructs, so both are held as one molecule; also called N-FLAG B3GNT2; C-FLAG B3GNT2; not shown: FLAG tag at the N- or the C-terminus
T1 sequence (looked up): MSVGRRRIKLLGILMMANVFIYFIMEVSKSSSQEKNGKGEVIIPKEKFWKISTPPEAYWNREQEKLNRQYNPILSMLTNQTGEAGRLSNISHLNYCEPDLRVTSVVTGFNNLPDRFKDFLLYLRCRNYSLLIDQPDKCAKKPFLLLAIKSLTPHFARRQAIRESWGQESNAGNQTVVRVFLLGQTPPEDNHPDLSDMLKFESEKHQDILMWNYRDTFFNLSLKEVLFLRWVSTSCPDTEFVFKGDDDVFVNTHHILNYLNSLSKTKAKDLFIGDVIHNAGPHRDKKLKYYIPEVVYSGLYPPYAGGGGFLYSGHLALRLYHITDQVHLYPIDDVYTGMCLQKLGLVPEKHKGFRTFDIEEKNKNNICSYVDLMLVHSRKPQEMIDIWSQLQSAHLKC
Procedure: (§1) Cells were plated in 10-cm cell culture dishes and grown to 60-80% confluency. For each condition, two biological replicates were harvested for co-IP. Cells were washed with PBS and 4 mL of lysis buffer (20 mM HEPES, 1% Triton X-100, 150 mM NaCl, 1 mM EDTA, and 10% glycerol) containing protease inhibitor cocktail was added. Cells were scraped and lysate was incubated at 4° C. under rotary agitation for 1 h. Lysate was centrifuged at 14,000×g for 10 min at 4° C. Supernatant was transferred to a new tube and an aliquot was taken as the input. […] For Western blots, 10 μg/mL Chicken Anti-FLAG (Aves labs ET-DY100) and IgY control (R&D Systems AB-101-C) antibodies were biotinylated (Thermo Fisher Scientific 90407) and added to the respective conditions. Lysates with antibodies were incubated at 4° C. under rotary agitation overnight. For each mL of lysate, 50 μL of Pierce Protein A/G Magnetic Beads (Mass spectrometry; Thermo Fisher Scientific 88803) or Pierce Streptavidin Magnetic Beads (Western blot; Thermo Fisher Scientific 88817) was washed twice with lysis buffer. Lysates with antibodies were added to the beads and incubated at 4° C. under rotary agitation for 4 h. Beads were washed with lysis buffer 3 times and resuspended in lysis buffer for storage.

[2] = biological target: T2, CAPRIN1 (human, UniProt Q14444 2-709); experiment: co-IP with mouse anti-FLAG from lysate of cells overexpressing C-FLAG B3GNT2, then mass spectrometry
T2 construct: Identified by mass spectrometry in the co-IP; also called NP_005889.3 (+1)
T2 sequence (looked up): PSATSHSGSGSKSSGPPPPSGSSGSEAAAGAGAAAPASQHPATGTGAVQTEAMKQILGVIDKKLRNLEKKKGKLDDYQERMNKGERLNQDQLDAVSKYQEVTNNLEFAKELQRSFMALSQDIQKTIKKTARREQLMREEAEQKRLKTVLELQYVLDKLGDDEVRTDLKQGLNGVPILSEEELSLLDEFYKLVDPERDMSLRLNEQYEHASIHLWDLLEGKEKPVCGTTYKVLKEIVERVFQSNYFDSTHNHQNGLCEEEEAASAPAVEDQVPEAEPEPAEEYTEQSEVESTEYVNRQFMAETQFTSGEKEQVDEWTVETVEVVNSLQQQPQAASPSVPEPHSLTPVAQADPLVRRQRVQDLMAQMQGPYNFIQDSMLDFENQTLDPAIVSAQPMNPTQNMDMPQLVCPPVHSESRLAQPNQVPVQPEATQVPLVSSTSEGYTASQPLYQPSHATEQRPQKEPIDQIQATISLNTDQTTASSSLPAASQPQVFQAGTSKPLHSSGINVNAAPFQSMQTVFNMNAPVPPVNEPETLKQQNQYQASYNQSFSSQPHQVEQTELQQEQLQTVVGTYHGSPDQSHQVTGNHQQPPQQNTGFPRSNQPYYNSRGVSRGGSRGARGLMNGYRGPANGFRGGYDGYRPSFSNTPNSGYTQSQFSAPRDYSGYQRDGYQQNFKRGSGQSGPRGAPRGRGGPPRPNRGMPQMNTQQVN
Procedure: as §1
(§2) Magnetic beads were resuspended in 100 mM Tris pH 7.8, reduced, alkylated and digested with trypsin at 37° ° C. overnight. This solution was subjected to solid phase extraction to concentrate the peptides and remove unwanted reagents followed by injection onto a Shimadzu HPLC with fraction collector. Eight fractions were collected and after concentration were injected on a Waters NanoAcquity HPLC equipped with a self-packed Aeris 3 μm C18 analytical column 0.075 mm by 20 cm, (Phenomenex). Peptides were eluted using standard reverse-phase gradients. The effluent from the column was analyzed using a Thermo Orbitrap Elite mass spectrometer (nanospray configuration) operated in a data dependent manner for 54 minutes. The resulting fragmentation spectra were correlated against the known database using Proteome Discover 1.4 (Thermo Fisher Scientific).

[3] = biological target: T3, VIM (human, UniProt P08670 2-466); experiment: as above
T3 construct: Identified by mass spectrometry in the co-IP; also called NP_003371.2
T3 sequence (P08670 2-466 limits assumed): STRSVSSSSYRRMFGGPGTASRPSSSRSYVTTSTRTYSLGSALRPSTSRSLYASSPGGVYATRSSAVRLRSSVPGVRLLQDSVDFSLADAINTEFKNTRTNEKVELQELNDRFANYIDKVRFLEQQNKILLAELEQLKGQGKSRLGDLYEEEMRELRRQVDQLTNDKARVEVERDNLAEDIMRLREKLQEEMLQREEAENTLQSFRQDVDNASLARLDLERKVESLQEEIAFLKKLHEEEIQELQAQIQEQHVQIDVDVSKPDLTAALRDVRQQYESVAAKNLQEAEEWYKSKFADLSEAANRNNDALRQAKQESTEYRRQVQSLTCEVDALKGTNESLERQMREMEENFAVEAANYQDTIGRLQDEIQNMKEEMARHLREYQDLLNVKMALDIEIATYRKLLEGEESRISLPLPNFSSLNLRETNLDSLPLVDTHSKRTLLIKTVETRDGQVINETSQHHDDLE
Procedure: as §1, §2

[4] = biological target: T4, CPSF6 (human, UniProt Q16630-2 1-588, limits assumed); experiment: as above
T4 construct: Identified by mass spectrometry in the co-IP; also called NP_001287876.1 (+3)
T4 sequence (looked up): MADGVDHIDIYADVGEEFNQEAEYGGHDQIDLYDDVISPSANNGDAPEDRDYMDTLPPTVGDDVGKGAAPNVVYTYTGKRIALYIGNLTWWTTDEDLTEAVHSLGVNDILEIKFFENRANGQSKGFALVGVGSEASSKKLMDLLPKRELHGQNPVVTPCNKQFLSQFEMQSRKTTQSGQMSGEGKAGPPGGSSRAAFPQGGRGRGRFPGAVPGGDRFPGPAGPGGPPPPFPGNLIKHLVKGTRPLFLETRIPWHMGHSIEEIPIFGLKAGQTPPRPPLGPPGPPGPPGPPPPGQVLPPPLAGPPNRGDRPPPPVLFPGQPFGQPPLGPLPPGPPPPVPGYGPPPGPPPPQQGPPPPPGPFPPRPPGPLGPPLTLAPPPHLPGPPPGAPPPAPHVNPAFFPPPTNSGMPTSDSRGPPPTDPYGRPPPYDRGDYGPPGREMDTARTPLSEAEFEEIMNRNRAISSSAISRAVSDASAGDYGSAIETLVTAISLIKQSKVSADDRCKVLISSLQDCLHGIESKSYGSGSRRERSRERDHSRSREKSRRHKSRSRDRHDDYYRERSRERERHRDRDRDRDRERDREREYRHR
Procedure: as §1, §2

[5] = biological target: T5, KHDRBS1 (human, UniProt Q07666 1-443); experiment: as above
T5 construct: Identified by mass spectrometry in the co-IP; also called NP_006550.1
T5 sequence (Q07666 whole entry): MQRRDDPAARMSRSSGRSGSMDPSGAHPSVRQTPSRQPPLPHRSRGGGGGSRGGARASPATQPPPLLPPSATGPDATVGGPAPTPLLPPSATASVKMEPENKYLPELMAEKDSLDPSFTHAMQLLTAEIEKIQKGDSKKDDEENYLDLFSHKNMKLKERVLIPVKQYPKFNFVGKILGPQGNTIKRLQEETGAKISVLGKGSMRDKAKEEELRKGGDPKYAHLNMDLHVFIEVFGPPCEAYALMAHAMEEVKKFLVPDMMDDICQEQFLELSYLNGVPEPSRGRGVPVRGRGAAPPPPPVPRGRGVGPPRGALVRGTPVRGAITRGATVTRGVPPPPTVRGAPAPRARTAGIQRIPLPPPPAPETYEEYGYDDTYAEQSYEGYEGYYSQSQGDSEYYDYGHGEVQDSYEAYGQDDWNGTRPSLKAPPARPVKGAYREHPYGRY
Procedure: as §1, §2

[6] = biological target: T6, PABPC1 (human, UniProt P11940 1-636); experiment: as above
T6 construct: Identified by mass spectrometry in the co-IP; also called NP_002559.2
T6 sequence (P11940 whole entry): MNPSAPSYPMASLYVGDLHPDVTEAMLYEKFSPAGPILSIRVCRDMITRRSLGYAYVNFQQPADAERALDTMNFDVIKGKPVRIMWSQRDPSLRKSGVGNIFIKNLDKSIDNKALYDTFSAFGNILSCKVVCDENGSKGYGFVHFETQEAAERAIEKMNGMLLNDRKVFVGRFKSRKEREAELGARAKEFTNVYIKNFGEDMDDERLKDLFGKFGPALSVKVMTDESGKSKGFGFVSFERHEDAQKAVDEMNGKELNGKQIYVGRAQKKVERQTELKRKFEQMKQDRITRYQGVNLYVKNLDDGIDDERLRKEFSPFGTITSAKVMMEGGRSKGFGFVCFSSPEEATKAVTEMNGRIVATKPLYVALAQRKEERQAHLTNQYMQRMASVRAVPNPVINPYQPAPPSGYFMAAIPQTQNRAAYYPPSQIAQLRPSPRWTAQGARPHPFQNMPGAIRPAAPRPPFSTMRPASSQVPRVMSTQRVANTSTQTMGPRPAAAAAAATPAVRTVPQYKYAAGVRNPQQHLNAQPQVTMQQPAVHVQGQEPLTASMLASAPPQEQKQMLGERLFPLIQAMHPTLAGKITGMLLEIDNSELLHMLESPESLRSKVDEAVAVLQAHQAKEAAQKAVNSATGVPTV
Procedure: as §1, §2

[7] = biological target: T7, ANXA2 (human, UniProt P07355-2 1-357, limits assumed); experiment: as above
T7 construct: Identified by mass spectrometry in the co-IP; also called NP_001002858.1 (+1)
T7 sequence (P07355 other isoform, or with tags, fused parts or gaps limits assumed): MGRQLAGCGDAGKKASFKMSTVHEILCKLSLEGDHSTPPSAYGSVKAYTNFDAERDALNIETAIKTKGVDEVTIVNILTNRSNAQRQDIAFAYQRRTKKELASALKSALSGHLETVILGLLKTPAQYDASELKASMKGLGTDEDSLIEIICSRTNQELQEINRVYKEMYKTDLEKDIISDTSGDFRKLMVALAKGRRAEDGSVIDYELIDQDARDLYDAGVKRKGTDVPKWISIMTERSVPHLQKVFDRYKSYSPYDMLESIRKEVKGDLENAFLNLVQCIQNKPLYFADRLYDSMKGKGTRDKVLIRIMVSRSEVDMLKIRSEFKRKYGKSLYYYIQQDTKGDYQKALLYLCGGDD
Procedure: as §1, §2

[8] = biological target: T8, CASC3 (human, UniProt O15234 1-703); experiment: as above
T8 construct: Identified by mass spectrometry in the co-IP; also called NP_031385.2
T8 sequence (O15234 whole entry): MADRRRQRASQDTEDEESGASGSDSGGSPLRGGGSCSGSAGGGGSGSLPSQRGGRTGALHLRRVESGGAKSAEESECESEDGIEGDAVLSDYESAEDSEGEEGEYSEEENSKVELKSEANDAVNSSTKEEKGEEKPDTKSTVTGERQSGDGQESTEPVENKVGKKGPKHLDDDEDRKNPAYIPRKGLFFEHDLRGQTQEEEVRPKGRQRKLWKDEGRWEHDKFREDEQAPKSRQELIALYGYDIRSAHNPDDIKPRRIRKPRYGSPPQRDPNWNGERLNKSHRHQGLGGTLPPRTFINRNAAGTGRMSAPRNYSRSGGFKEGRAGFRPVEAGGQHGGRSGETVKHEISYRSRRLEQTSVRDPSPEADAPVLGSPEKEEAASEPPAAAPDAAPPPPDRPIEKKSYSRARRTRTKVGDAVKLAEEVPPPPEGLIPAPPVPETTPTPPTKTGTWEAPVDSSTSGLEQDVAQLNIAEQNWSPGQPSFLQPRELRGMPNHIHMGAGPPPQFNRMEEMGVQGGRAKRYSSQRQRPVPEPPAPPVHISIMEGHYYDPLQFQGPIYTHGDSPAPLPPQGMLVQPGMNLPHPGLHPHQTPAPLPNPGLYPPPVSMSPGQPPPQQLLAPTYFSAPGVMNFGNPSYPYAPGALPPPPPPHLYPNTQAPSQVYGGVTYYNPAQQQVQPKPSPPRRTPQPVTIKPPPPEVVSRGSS
Procedure: as §1, §2

B1: CD70, endogenous in A375 melanoma cells (ligand, human, UniProt P32970 1-193, looked up)
chain: MPEEGSGCSVRRRPYGCVLRAALVPLVAGLVICLVVCIQRFAQAQQQLPLESLGWDVAELQLNHTGPQQDPRLYWQGGPALGRSFLHGPELDKGQLRIHRDGIYMVHIQVTLAICSSTTASRHHPTTLAVGICSPASRSISLLRLSFHQGCTIASQRLTPLARGDTLCTNLTGTLLPSRNTDETFFGVQWVRP
modifications: poly-LacNAc glycosylation added by B3GNT2 (sites not given)
notes: whole, on cells; In the co-IP it comes from the lysate of A375 cells
- binding result [1]: binds

B2: MICB, endogenous in A375 melanoma cells (ligand, human, UniProt Q29980 23-383, looked up)
chain: AEPHSLRYNLMVLSQDGSVQSGFLAEGHLDGQPFLRYDRQKRRAKPQGQWAENVLGAKTWDTETEDLTENGQDLRRTLTHIKDQKGGLHSLQEIRVCEIHEDSSTRGSRHFYYDGELFLSQNLETQESTVPQSSRAQTLAMNVTNFWKEDAMKTKTHYRAMQADCLQKLQRYLKSGVAIRRTVPPMVNVTCSEVSEGNITVTCRASSFYPRNITLTWRQDGVSLSHNTQQWGDVLPDGNGTYQTWVATRIRQGEEQRFTCYMEHSGNHGTHPVPSGKALVLQSQRTDFPYVSAAMPCFVIIIILCVPCCKKKTSAAEGPELVSLQVLDQHPVGTGDHRDAAQLGFQPLMSATGSTGSTEGT
modifications: poly-LacNAc glycosylation added by B3GNT2 (sites not given)
notes: whole, on cells; On fixed A375 cells in flow cytometry; In the co-IP it comes from the lysate of these cells
- binding result [1]: binds

B3: C-terminal FLAG tagged B3GNT2 (enzyme, human, UniProt Q9NY97 1-397, looked up)
chain: T1 sequence (looked up)
notes: FLAG-tagged ORF overexpressed in A375 cells; bait of the co-IP with mouse anti-FLAG; also called C-FLAG B3GNT2; C-term flag; not shown: C-terminal FLAG tag
- co-IP mass spectrometry count (C-term flag) [2]: 6
- co-IP mass spectrometry count (C-term flag) [3]: 411
- co-IP mass spectrometry count (C-term flag) [4]: 35
- co-IP mass spectrometry count (C-term flag) [5]: 9
- co-IP mass spectrometry count (C-term flag) [6]: 41
- co-IP mass spectrometry count (C-term flag) [7]: 15
- co-IP mass spectrometry count (C-term flag) [8]: 0

B4: FAS, endogenous in A375 melanoma cells (receptor, human, UniProt P25445 26-335, looked up)
chain: QVTDINSKGLELRKTVTTVETQNLEGLHHDGQFCHKPCPPGERKARDCTVNGDEPDCVPCQEGKEYTDKAHFSSKCRRCRLCDEGHGLEVEINCTRTQNTKCRCKPNFFCNSTVCEHCDPCTKCEHGIIKECTLTSNTKCKEEGSRSNLGWLCLLLLPIPLIVWVKRKEVQKTCRKHRKENQGSHESPTLNPETVAINLSDVDLSKYITTIAGVMTLSQVKGFVRKNGVNEAKIDEIKNDNVQDTAEQKVQLLRNWHQLHGKKEAYDTLIKDLKKANLCTLAEKIQTIILKDITSDSENSNFRNEIQSLV
modifications: poly-LacNAc glycosylation added by B3GNT2 (sites not given)
notes: whole, on cells; In the co-IP it comes from the lysate of A375 cells; also called Fas receptor
- binding result [1]: binds

B5: IFNGR2, endogenous in A375 melanoma cells (receptor, human, UniProt P38484 22-337, looked up)
chain: APPDPLSQLPAPQHPKIRLYNAEQVLSWEPVALSNSTRPVVYQVQFKYTDSKWFTADIMSIGVNCTQITATECDFTAASPSAGFPMDFNVTLRLRAELGALHSAWVTMPWFQHYRNVTVGPPENIEVTPGEGSLIIRFSSPFDIADTSTAFFCYYVHYWEKGGIQQVKGPFRSNSISLDNLKPSRVYCLQVQAQLLWNKSNIFRVGHLSNISCYETMADASTELQQVILISVGTFSLLSVLAGACFFLVLKYRGLIKYWFHTPPSIPLQIEEYLKDPTQPILEALDKDSSPKDDVWDSVSIISFPEKEQEDVLQTL
modifications: poly-LacNAc glycosylation added by B3GNT2 (sites not given)
notes: as for B1
- binding result [1]: binds

B6: CD58, endogenous in A375 melanoma cells (ligand, human, UniProt P19256 29-250, looked up)
chain: FSQQIYGVVYGNVTFHVPSNVPLKEVLWKKQKDKVAELENSEFRAFSSFKNRVYLDTVSGSLTIYNLTSSDEDEYEMESPNITDTMKFFLYVLESLPSPTLTCALTNGSIEVQCMIPEHYNSHRGLIMYSWDCPMEQCKRNSTSIYFKMENDLPQKIQCTLSNPLFNTTSSIILTTCIPSSGHSRHRYALIPIPLAVITTCIVLYMNGILKCDRKPDRTNSN
modifications: poly-LacNAc glycosylation added by B3GNT2 (sites not given)
notes: as for B2
- binding result [1]: binds
